Measured values from US20210292396A1 (INTERNATIONAL AIDS VACCINE INITIATIVE, published 2021).

Key:
Assay in all cases: cell-based or functional assay
[1] = target: HIV Env of isolate T257-31 (HIV)
[2] = target: HIV Env of isolate 928-28 (HIV)
[3] = target: HIV Env of isolate T278-50 (HIV)
[4] = target: HIV Env of isolate 235-47 (HIV)
[5] = target: HIV Env of isolate 620345.c01 (HIV)
[6] = target: HIV Env of isolate R1166.c01 (HIV)
[7] = target: HIV Env of isolate R3265.c06 (HIV)
HIV Env of isolate CNE5 = HIV Env of isolate CNE5 (HIV)
[8] = target: HIV Env of isolate BJOX009000.02.4 (HIV)
[9] = target: HIV Env of isolate BJOX010000.06.2 (HIV)
[10] = target: HIV Env of isolate BJOX025000.01.1 (HIV)
[11] = target: HIV Env of isolate X2131_C1_B5 (HIV)
[12] = target: HIV Env of isolate X1632_S2_B10 (HIV)
[13] = target: HIV Env of isolate A07412M1.vrc12 (HIV)
[14] = target: HIV Env of isolate 231965.c01 (HIV)
[15] = target: HIV Env of isolate 3817.v2.c59 (HIV)
[16] = target: HIV Env of isolate 89-F1_2_25 (HIV)
[17] = target: HIV Env of isolate 6545.v4.c1 (HIV)
[18] = target: HIV Env of isolate 0815.v3.c3 (HIV)
[19] = target: HIV Env of isolate TRO.11 (HIV)
[20] = target: HIV Env of isolate AC10.0.29 (HIV)
[21] = target: HIV Env of isolate REJO4541.67 (HIV)
[22] = target: HIV Env of isolate TRJO4551.58 (HIV)
[23] = target: HIV Env of isolate CAAN5342.A2 (HIV)
[24] = target: HIV Env of isolate WEAU_d15_410_5017 (HIV)
[25] = target: HIV Env of isolate 6244_13_B5_4576 (HIV)
[26] = target: HIV Env of isolate Du156.12 (HIV)
[27] = target: HIV Env of isolate ZM233M.PB6 (HIV)
[28] = target: HIV Env of isolate ZM53M.PB12 (HIV)
[29] = target: HIV Env of isolate ZM109F.PB4 (HIV)
[30] = target: HIV Env of isolate ZM135M.PL10a (HIV)
[31] = target: HIV Env of isolate HIV-001428-2.42 (HIV)
[32] = target: HIV Env of isolate HIV-0013095-2.11 (HIV)
[33] = target: HIV Env of isolate HIV-16845-2.22 (HIV)
[34] = target: HIV Env of isolate Ce0393_C3 (HIV)
[35] = target: HIV Env of isolate Ce1176_A3 (HIV)
[36] = target: HIV Env of isolate Ce2010_F5 (HIV)
[37] = target: HIV Env of isolate Ce2060_G9 (HIV)
[38] = target: HIV Env of isolate BF1266.431a (HIV)
[39] = target: HIV Env of isolate 249M_B10 (HIV)
[40] = target: HIV Env of isolate 1394C9G1(Rev-) (HIV)
HIV Env of isolate CNE52 = HIV Env of isolate CNE52 (HIV)
HIV Env of isolate CNE58 = HIV Env of isolate CNE58 (HIV)
[41] = target: HIV Env of isolate Q461.e2 (HIV)
[42] = target: HIV Env of isolate 0260.v5.c36 (HIV)

B1: PGT-121 (antibody, V domains shown)
VH: QMQLQESGPGLVKPSETLSLTCSVSGASISDSYWSWIRRSPGKGLEWIGYVHKSGDTNYSPSLKSRVNLSLDTSKNQVSLSLVAATAADSGKYYCARTLHGRRIYGIVAFNEWFTYFYMDVWGNGTQVTVSS
VL: SDISVAPGETARISCGEKSLGSRAVQWYQHRAGQAPSLIIYNNQDRPSGIPERFSGSPDSPFGTTATLTITSVEAGDEADYYCHIWDSRVPTKWVFGGGTTLTVLG
neutralization IC50 [1]: > 50 µg/mL | neutralization IC50 [2]: 44.2 µg/mL | neutralization IC50 [3]: > 50 µg/mL | neutralization IC50 [4]: 0.137 µg/mL | neutralization IC50 [5]: > 50 µg/mL | neutralization IC50 [6]: > 50 µg/mL | neutralization IC50 [7]: > 50 µg/mL | neutralization IC50 (HIV Env of isolate CNE5): > 50 µg/mL | neutralization IC50 [8]: 2.86 µg/mL | neutralization IC50 [9]: > 50 µg/mL | neutralization IC50 [10]: > 50 µg/mL | neutralization IC50 [11]: 0.004 µg/mL | neutralization IC50 [12]: > 50 µg/mL | neutralization IC50 [13]: 0.009 µg/mL | neutralization IC50 [14]: > 50 µg/mL | neutralization IC50 [15]: 18.9 µg/mL | neutralization IC50 [16]: > 50 µg/mL | neutralization IC50 [17]: > 50 µg/mL | neutralization IC50 [18]: 0.025 µg/mL | neutralization IC50 [19]: 0.005 µg/mL | neutralization IC50 [20]: 0.024 µg/mL | neutralization IC50 [21]: 4.77 µg/mL | neutralization IC50 [22]: 1.31 µg/mL | neutralization IC50 [23]: 0.007 µg/mL | neutralization IC50 [24]: 0.026 µg/mL | neutralization IC50 [25]: 0.061 µg/mL | neutralization IC50 [26]: 0.004 µg/mL | neutralization IC50 [27]: 3.69 µg/mL | neutralization IC50 [28]: 0.001 µg/mL | neutralization IC50 [29]: 8.64 µg/mL | neutralization IC50 [30]: 0.716 µg/mL | neutralization IC50 [31]: 0.014 µg/mL | neutralization IC50 [32]: > 50 µg/mL | neutralization IC50 [33]: 3.97 µg/mL | neutralization IC50 [34]: > 50 µg/mL | neutralization IC50 [35]: 0.013 µg/mL | neutralization IC50 [36]: > 50 µg/mL | neutralization IC50 [37]: > 50 µg/mL | neutralization IC50 [38]: > 50 µg/mL | neutralization IC50 [39]: > 50 µg/mL | neutralization IC50 [40]: 0.264 µg/mL | neutralization IC50 (HIV Env of isolate CNE52): 2.05 µg/mL | neutralization IC50 (HIV Env of isolate CNE58): > 50 µg/mL | neutralization IC50 [41]: > 50 µg/mL | neutralization IC50 [42]: 0.053 µg/mL

B2: ePGT121.15.H1.L1 (antibody, V domains shown)
VH: QMQLQESGPGLVKPGETLSLTCSVSGASISSSYWSWLRETPGKGLEWIGYTHHSGDTNYAPSLKSRVHLGLHPSKNQVSLSLTSVTAADTAVYYCARTLHGRRIYGVVAFNEWFTYFYWEVWGNGTQVTVSS
VL: SDISVAPGETVRISCGGESIGSRAVQWYQHRAGQAPKLIIYNNQDRPPGIPERFSGSPDIDFGTTATLTITNVEAGDEATYYCHIWDSRRPTNWVFGGGTTLTVL
neutralization IC50 [1]: > 50 µg/mL | neutralization IC50 [2]: 0.0178 µg/mL | neutralization IC50 [3]: 0.0124 µg/mL | neutralization IC50 [4]: 0.0019 µg/mL | neutralization IC50 [5]: > 50 µg/mL | neutralization IC50 [6]: > 50 µg/mL | neutralization IC50 [7]: > 50 µg/mL | neutralization IC50 (HIV Env of isolate CNE5): 15.8 µg/mL | neutralization IC50 [8]: 0.0046 µg/mL | neutralization IC50 [9]: > 50 µg/mL | neutralization IC50 [10]: > 50 µg/mL | neutralization IC50 [11]: 0.0004 µg/mL | neutralization IC50 [12]: > 50 µg/mL | neutralization IC50 [13]: 0.0022 µg/mL | neutralization IC50 [14]: > 50 µg/mL | neutralization IC50 [15]: 0.724 µg/mL | neutralization IC50 [16]: > 50 µg/mL | neutralization IC50 [17]: > 50 µg/mL | neutralization IC50 [18]: 0.0017 µg/mL | neutralization IC50 [19]: 0.0001 µg/mL | neutralization IC50 [20]: 0.0002 µg/mL | neutralization IC50 [21]: 3.17 µg/mL | neutralization IC50 [22]: 0.0005 µg/mL | neutralization IC50 [23]: 0.0002 µg/mL | neutralization IC50 [24]: 0.0001 µg/mL | neutralization IC50 [25]: 0.0037 µg/mL | neutralization IC50 [26]: 0.0001 µg/mL | neutralization IC50 [27]: 0.0124 µg/mL | neutralization IC50 [28]: 0.0006 µg/mL | neutralization IC50 [29]: 10.7 µg/mL | neutralization IC50 [30]: 0.132 µg/mL | neutralization IC50 [31]: 0.0001 µg/mL | neutralization IC50 [32]: 0.0001 µg/mL | neutralization IC50 [33]: 0.0072 µg/mL | neutralization IC50 [34]: > 50 µg/mL | neutralization IC50 [35]: 0.0004 µg/mL | neutralization IC50 [36]: > 50 µg/mL | neutralization IC50 [37]: > 50 µg/mL | neutralization IC50 [38]: > 50 µg/mL | neutralization IC50 [39]: 0.0022 µg/mL | neutralization IC50 [40]: 0.0004 µg/mL | neutralization IC50 (HIV Env of isolate CNE52): 0.0203 µg/mL | neutralization IC50 (HIV Env of isolate CNE58): 0.0025 µg/mL | neutralization IC50 [41]: > 50 µg/mL | neutralization IC50 [42]: 0.004 µg/mL
